Measured values taken from article doi:10.1101/2025.03.28.645925 (bioRxiv, 2025).
Where a chain is given by its changes, count along the chain named. Names and notes keep the numbering of the source. Values joined by “and” are separate entries in the source; they are usually repeats but may differ in a detail not shown here. Equal entries are not always repeated. Where two headings read alike, the source gives them in different places.

Tests used:
[1] = target: NrdR1^PAO (P. aeruginosa NrdR with a two amino acid linker after SUMO protease digestion) (P. aeruginosa PAO1); test: SEC
[2] = target: NrdR1^PAO (P. aeruginosa NrdR with a two amino acid linker after SUMO protease digestion) (P. aeruginosa PAO1); test: SEC; remark: listed apart in the source
[3] = target: NrdR2^PAO (GSGSGS-NrdR2, P. aeruginosa NrdR after TEV digestion) (P. aeruginosa PAO1); test: SEC-MALS
[4] = target: NrdR2^PAO (GSGSGS-NrdR2, P. aeruginosa NrdR after TEV digestion) (P. aeruginosa PAO1); test: SEC-MALS; remark: listed apart in the source
[5] = target: NrdR2^PAO (GSGSGS-NrdR2, P. aeruginosa NrdR after TEV digestion) (P. aeruginosa PAO1); test: SEC-MALS; remark: listed apart in the source
[6] = target: the molecule itself; test: SEC-MALS
[7] = target: P0A8D0; test: SEC-MALS
[8] = target: P0A8D0; test: SEC-MALS; remark: listed apart in the source
[9] = target: the molecule itself; test: SEC-MALS; remark: listed apart in the source
[10] = target: the molecule itself; test: SEC-MALS; remark: listed apart in the source
[11] = target: the molecule itself; test: SEC-MALS; remark: listed apart in the source
[12] = target: the molecule itself; test: SEC-MALS; remark: listed apart in the source
[13] = target: the molecule itself; test: SEC-MALS; remark: listed apart in the source
[14] = target: the molecule itself; test: SEC

NrdR1^PAO (P. aeruginosa NrdR with a two amino acid linker after SUMO protease digestion) (natural protein)
stoichiometry N [1]: 2 and 3
stoichiometry N [2]: 6 and 2

NrdR2^PAO (GSGSGS-NrdR2, P. aeruginosa NrdR after TEV digestion) (natural protein)
stoichiometry N [3]: > 2
stoichiometry N [4]: 2
stoichiometry N [5]: > 2

B1: SUMO-NrdR2^ECO E42A (natural protein, E. coli K-12 MG1655)
chain: ENLYPQGSGSGSMHCPFCFAVDTKVIDSRLVGEGSSVRRRRQCLVCNERFTTFAVAELVMPRVVKSNDVREPFNEEKLRSGMLRALEKRPVSSDDVEMAINHIKSQLRATGEREVPSKMIGNLVMEQLKKLDKVAYIRFASVYRSFEDIKEFGEEIARLED
stoichiometry N [6]: 2
percent of the protein mass in the monomer peak [7]: 83% in a peak with average Mw 36.88 kDa
percent of the protein mass in the monomer peak [8]: 63% in a peak with average Mw 33.21 kDa

B2: NrdR2^ECO (GSGSGS-NrdR2, E. coli NrdR after TEV digestion) (natural protein, E. coli K-12 MG1655)
chain: GSGSGSMHCPFCFAVDTKVIDSRLVGEGSSVRRRRQCLVCNERFTTFEVAELVMPRVVKSNDVREPFNEEKLRSGMLRALEKRPVSSDDVEMAINHIKSQLRATGEREVPSKMIGNLVMEQLKKLDKVAYIRFASVYRSFEDIKEFGEEIARLED
stoichiometry N [9]: 3
stoichiometry N [10]: 15 to 16
stoichiometry N [6]: 2
stoichiometry N [11]: 6
stoichiometry N [12]: 4 to 10 (2×) and 8

B3: SUMO-NrdR2^ECO (undigested 6His-SUMO-TEVcs-(SGSGS)-NrdR, E. coli), wild type (natural protein, E. coli K-12 MG1655)
chain: B1 chain with A54E
stoichiometry N [13]: 4 and 8
stoichiometry N [10]: 12
stoichiometry N [6]: 2 and ≥ 4

B4: SUMO-NrdR2^ECO E36A (natural protein, E. coli K-12 MG1655)
chain: B1 chain with E48A, A54E
stoichiometry N [13]: 3
stoichiometry N [6]: 2 and ≥ 4

B5: SUMO-NrdR2^ECO Y131A (natural protein, E. coli K-12 MG1655)
chain: B1 chain with A54E, Y143A
stoichiometry N [10]: 4 and 8 and 3
stoichiometry N [6]: 2

B6: NrdR^PAO-H6 (P. aeruginosa NrdR with a C-terminal 6His-tag) (natural protein, P. aeruginosa PAO1, UniProt Q9HWX1 1-154, looked up)
chain: MHCPFCGAHDTKVIDSRLVAEGDQVRRRRECLACGERFTTFETAELVMPRLIKQDGSRQPFDEDKLRAGMQRALEKRPVSVERLEAAIGHIKHQLRATGEREIKSRVLGELVMAELQKLDEVAYIRFASVYRRFQDLNEFREEIERLAREPAKE
binding result [14]: binds

B7: SUMO-NrdR2^ECO Δ(132-149) (domain or fragment, E. coli K-12 MG1655)
chain: ENLYPQGSGSGSMHCPFCFAVDTKVIDSRLVGEGSSVRRRRQCLVCNERFTTFEVAELVMPRVVKSNDVREPFNEEKLRSGMLRALEKRPVSSDDVEMAINHIKSQLRATGEREVPSKMIGNLVMEQLKKLDKVAYIRFASVY
stoichiometry N [6]: 2
